Key:
[1] = target: trkC variant s5a immunoadhesin (trkC Val297 to Thr420 replaced with trkA Ser277 to Val402) (human); assay: saturation binding with 125I-NGF on immunoadhesin
[2] = target: trkC variant s5a immunoadhesin (trkC Val297 to Thr420 replaced with trkA Ser277 to Val402) (human); assay: competitive displacement of labelled NGF on immunoadhesin
[3] = target: T1, trkC-IgG immunoadhesin (chimera of human trkC extracellular domain with human IgG-1 Fc) (human, UniProt Q16288 32-413); assay: competitive displacement of labelled BDNF on immunoadhesin
T1 construct: also called trkC wild-type; trkC full length receptor (as immunoadhesin); not shown: human IgG-1 heavy chain constant region from aspartic acid 216 of the hinge to residue 441 (Kabat numbering, 114 = first)

[4] = target: T2, trkB-IgG immunoadhesin (chimera of human trkB extracellular domain with human IgG-1 Fc) (human, UniProt Q16620 32-422); assay: competitive displacement of labelled BDNF from trkB-IgG by unlabelled BDNF
T2 construct: also called trkB full length receptor (as immunoadhesin); not shown: human IgG-1 heavy chain constant region from aspartic acid 216 of the hinge to residue 441 (Kabat numbering, 114 = first)

[5] = target: T2, trkB-IgG immunoadhesin (chimera of …); assay: competitive displacement of labelled BDNF from trkB-IgG by unlabelled NT3
[6] = target: T3, trkA-IgG immunoadhesin (chimera of human trkA extracellular domain with human IgG-1 Fc) (human, UniProt P04629 33-408); assay: competitive displacement of iodinated neurotrophin from trk-IgG
T3 construct: also called trkA-IgG chimera; native trkA; not shown: human IgG-1 heavy chain constant region from aspartic acid 216 of the hinge to residue 441 (Kabat numbering, 114 = first)

[7] = target: T2, trkB-IgG immunoadhesin (chimera of …); assay: competitive displacement of labelled BDNF from trkB-IgG by unlabelled NT4/5

T2 sequence (Q16620 32-422 limits assumed, change not shown): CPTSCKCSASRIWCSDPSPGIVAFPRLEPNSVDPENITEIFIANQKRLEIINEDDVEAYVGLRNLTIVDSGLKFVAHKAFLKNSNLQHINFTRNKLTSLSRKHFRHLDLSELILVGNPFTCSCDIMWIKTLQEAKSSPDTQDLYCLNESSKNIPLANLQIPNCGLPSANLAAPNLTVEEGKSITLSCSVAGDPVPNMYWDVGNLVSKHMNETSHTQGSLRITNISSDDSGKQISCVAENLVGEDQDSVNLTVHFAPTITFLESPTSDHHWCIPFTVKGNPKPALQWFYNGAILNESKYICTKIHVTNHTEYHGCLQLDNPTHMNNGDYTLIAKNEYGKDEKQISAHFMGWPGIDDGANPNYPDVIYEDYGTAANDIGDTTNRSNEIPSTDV
Sequence of trkC variant s5a immunoadhesin (trkC Val297 to Thr420 replaced with trkA Ser277 to Val402) (human) (chain, as listed by the source mutant): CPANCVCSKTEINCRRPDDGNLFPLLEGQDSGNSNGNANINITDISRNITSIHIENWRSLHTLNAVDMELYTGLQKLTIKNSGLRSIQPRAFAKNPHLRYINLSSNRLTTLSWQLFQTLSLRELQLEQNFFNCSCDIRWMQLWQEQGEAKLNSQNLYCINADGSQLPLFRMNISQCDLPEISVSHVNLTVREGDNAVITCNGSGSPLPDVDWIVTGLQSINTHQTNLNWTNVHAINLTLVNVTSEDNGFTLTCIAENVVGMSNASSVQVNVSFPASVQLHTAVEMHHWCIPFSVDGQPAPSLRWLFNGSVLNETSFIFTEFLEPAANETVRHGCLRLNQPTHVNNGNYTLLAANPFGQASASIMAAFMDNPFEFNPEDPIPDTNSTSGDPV
T3 sequence (P04629 other isoform, or with tags, fused parts or gaps mutant limits assumed): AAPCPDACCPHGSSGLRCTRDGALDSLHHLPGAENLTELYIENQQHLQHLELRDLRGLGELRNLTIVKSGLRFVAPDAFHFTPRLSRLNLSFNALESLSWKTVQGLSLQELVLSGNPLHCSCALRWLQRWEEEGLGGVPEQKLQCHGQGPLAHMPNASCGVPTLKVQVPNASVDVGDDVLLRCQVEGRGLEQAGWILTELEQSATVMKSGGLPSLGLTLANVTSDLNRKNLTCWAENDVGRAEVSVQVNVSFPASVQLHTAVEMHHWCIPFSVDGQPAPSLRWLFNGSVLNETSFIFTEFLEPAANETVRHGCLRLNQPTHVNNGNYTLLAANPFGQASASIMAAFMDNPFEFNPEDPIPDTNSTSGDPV

With “nerve growth factor (NGF) (from UniProt P01138 122-241) (ligand)” the Kd [1] was 0.0386 nM and the IC50 [2] was 0.0393 nM.

B1: brain-derived neurotrophic factor (BDNF) (ligand)
chain: HSDPARRGELSVCDSISEWVTAADKKTAVDMSGGTVTVLEKVPVSKGQLKQYFYETKCNPMGYTKEGCRGIDKRHWNSQCRTTQSYVRALTMDSKKRIGWRFIRIDTSCVCTLTIKRGR
notes: also called NT-2
With B1 the binding result [3] was “no binding” and the IC50 [4] was 0.081 nM.

B2: neurotrophin-3 (NT-3) (ligand)
chain: YAEHKSHRGEYSVCDSESLWVTDKSSAIDIRGHQVTVLGEIKTGNSPVKQYFYETRCKEARPVKNGCRGIDDKHWNSQCKTSQTYVRALTSENNKLVGWRWIRIDTSCVCALSRKIGRT
In the case of B2, the IC50 [5] is reported as 18 nM.

B3: neurotrophin-4/5 (NT-4/5) (ligand)
chain: GVSETAPASRRGELAVCDAVSGWVTDRRTAVDLRGREVEVLGEVPAAGGSPLRQYFFETRCKADNAEEGGPGAGGGGCRGVDRRHWVSECKAKQSYVRALTADAQGRVGWRWIRIDTACVCTLLSRTGRA
notes: also called NT5
For B3, the binding result [6] was “binds” and the IC50 [7] was 0.2 nM.

— patent US20090081707A1 (published 2009)
